Measured values as given in patent US20240376151A1, “STAPLED PEPTIDES AND METHODS THEREOF” (FOG PHARMACEUTICALS, INC., priority 2022, published 2024).
Numbered stars: 1 amine (or outer) side, 2 acyl side, 3 side chain; on linkers, the order of the positions; unused ones are H or OH. Bridge positions count the residues as written; N and C are the ends. Ends that are not written are not given here. Phenylene(1,4-NHCOCH2)2 = O=C(C[*:1])Nc1ccc(NC(=O)C[*:2])cc1

Tests used:
[1] = biological target: T1, WWP2^HECT (Homo sapiens, UniProt O00308); assay: Naive Library Presenter Screening (phage, NGS), WWP2^HECT; format: binding; settings: for interaction data at Target Concentration 10: WWP2 target concentration 10 nM; for interaction data at Target Concentration 30: WWP2 target concentration 30 nM; for interaction data at Target Concentration 100: WWP2 target concentration 100 nM; for interaction data at Target Concentration 300: WWP2 target concentration 300 nM; for interaction data at Target Concentration 1000: WWP2 target concentration 1000 nM
T1 construct: GST-TEV (N, cleaved yes); made in house; host or cells: Escherichia coli BL21 (DE3)
T1 sequence (O00308 492-865): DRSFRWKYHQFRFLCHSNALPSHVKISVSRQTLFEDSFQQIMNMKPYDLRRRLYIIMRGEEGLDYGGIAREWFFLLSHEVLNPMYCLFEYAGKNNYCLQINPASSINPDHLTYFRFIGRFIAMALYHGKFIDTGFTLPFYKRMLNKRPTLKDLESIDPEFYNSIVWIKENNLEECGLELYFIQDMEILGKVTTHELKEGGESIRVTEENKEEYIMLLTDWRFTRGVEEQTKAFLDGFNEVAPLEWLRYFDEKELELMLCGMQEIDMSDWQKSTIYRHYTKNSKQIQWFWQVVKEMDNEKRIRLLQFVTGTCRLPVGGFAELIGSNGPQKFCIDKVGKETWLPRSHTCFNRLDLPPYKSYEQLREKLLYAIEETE

[2] = biological target: CDK2 (Homo sapiens, UniProt P24941); assay: Phage Library Screening with NGS, CDK2; format: binding; parameters: Full length CDK2 (residues 1-298) with an N-terminal GST-3C-6×his-TEV tag; GST-3C-6×his-TEV (N, cleaved yes); made in house; host or cells: Sf9 (Bac-to-Bac baculovirus); settings: for phage screen counts, Target Concentration 10: CDK2, target concentration 10; for phage screen counts, Target Concentration 30: CDK2, target concentration 30; for phage screen counts, Target Concentration 100: CDK2, target concentration 100; for phage screen counts, Target Concentration 300: CDK2, target concentration 300
[3] = CDK2, target concentration 1000, first column
[4] = CDK2, target concentration 1000, second column

Sequence | interaction data at Target Concentration 10 [1] | interaction data at Target Concentration 30 [1] | interaction data at Target Concentration 100 [1] | interaction data at Target Concentration 300 [1] | interaction data at Target Concentration 1000 ([1]; first column) | interaction data at Target Concentration 1000 ([1]; second column) | phage screen counts, Target Concentration 10 [2] | phage screen counts, Target Concentration 30 [2] | phage screen counts, Target Concentration 100 [2] | phage screen counts, Target Concentration 300 [2] | phage screen counts, Target Concentration 1000 [2, 3] | phage screen counts, Target Concentration 1000 [2, 4]
DPAANYCEAAADTCQFF (linker 7-14 via Phenylene(1,4-NHCOCH2)2 (inferred)) | 0 | 179 | 254 | 297 | 283 | 378 | – | – | – | – | – | –
DPAAWDCRYAALACYIH (linker 7-14 via Phenylene(1,4-NHCOCH2)2 (inferred)) | 0 | – | 2 | 11 | 66 | 34 | – | – | – | – | – | –
DPAIHSCYAAAETCQFF (linker 7-14 via Phenylene(1,4-NHCOCH2)2 (inferred)) | 43 | 87 | 89 | 139 | 127 | 194 | – | – | – | – | – | –
DPAIQNCRSAADVCMFF (linker 7-14 via Phenylene(1,4-NHCOCH2)2; not fully specified (C-terminus)) | 0 | 65 | 96 | 109 | 117 | 127 | – | – | – | – | – | –
DPAIWDCLYAATNCYIN (linker 7-14 via Phenylene(1,4-NHCOCH2)2; not fully specified (C-terminus)) | 0 | 0 | 0 | 8 | 12 | 20 | – | – | – | – | – | –
DPALIHCRAAADTCAFW (linker 7-14 via Phenylene(1,4-NHCOCH2)2; not fully specified (C-terminus)) | 87 | 318 | 384 | 608 | 419 | 565 | – | – | – | – | – | –
DPALLHCMAAAQTCSFF (linker 7-14 via Phenylene(1,4-NHCOCH2)2; not fully specified (C-terminus)) | 0 | 47 | 26 | 37 | 59 | 123 | – | – | – | – | – | –
DPALWECMTAADWCMFM (linker 7-14 via Phenylene(1,4-NHCOCH2)2; not fully specified (C-terminus)) | 1 | 24 | 17 | 18 | 28 | 32 | – | – | – | – | – | –
DPALWECRNAAWQCWMH (linker 7-14 via Phenylene(1,4-NHCOCH2)2; not fully specified (C-terminus)) | 0 | 0 | 0 | 24 | 35 | 27 | – | – | – | – | – | –
DPALWHCLAAAETCAMF (linker 7-14 via Phenylene(1,4-NHCOCH2)2; not fully specified (C-terminus)) | 4 | 38 | 24 | 49 | 47 | 76 | – | – | – | – | – | –
DPAMWDCRYAALDCYMT (DPAMWDCRYAALDCYMT-NH2; linker 7-14 via Phenylene(1,4-NHCOCH2)2; N-terminus assumed; SMILES CSCC[C@H](NC(=O)[C@H](C)NC(=O)[C@@H]1CCCN1C(=O)[C@@H](N)CC(=O)O)C(=O)N[C@@H](Cc1c[nH]c2ccccc12)C(=O)N[C@@H](CC(=O)O)C(=O)N[C@H]1CSCC(=O)Nc2ccc(cc2)NC(=O)CSC[C@@H](C(=O)N[C@@H](Cc2ccc(O)cc2)C(=O)N[C@@H](CCSC)C(=O)N[C@H](C(N)=O)[C@@H](C)O)NC(=O)[C@H](CC(=O)O)NC(=O)[C@H](CC(C)C)NC(=O)[C@H](C)NC(=O)[C@H](C)NC(=O)[C@H](Cc2ccc(O)cc2)NC(=O)[C@H](CCCNC(=N)N)NC1=O) | 0 | 0 | 6 | 23 | 62 | 24 | – | – | – | – | – | –
DPAMWSCRYAAWECWVL (DPAMWSCRYAAWECWVL-NH2; linker 7-14 via Phenylene(1,4-NHCOCH2)2; N-terminus assumed; SMILES CSCC[C@H](NC(=O)[C@H](C)NC(=O)[C@@H]1CCCN1C(=O)[C@@H](N)CC(=O)O)C(=O)N[C@@H](Cc1c[nH]c2ccccc12)C(=O)N[C@@H](CO)C(=O)N[C@H]1CSCC(=O)Nc2ccc(cc2)NC(=O)CSC[C@@H](C(=O)N[C@@H](Cc2c[nH]c3ccccc23)C(=O)N[C@H](C(=O)N[C@@H](CC(C)C)C(N)=O)C(C)C)NC(=O)[C@H](CCC(=O)O)NC(=O)[C@H](Cc2c[nH]c3ccccc23)NC(=O)[C@H](C)NC(=O)[C@H](C)NC(=O)[C@H](Cc2ccc(O)cc2)NC(=O)[C@H](CCCNC(=N)N)NC1=O) | 0 | 0 | 0 | 8 | 7 | 28 | – | – | – | – | – | –
DPANWDCQQAAWLCIIQ (DPANWDCQQAAWLCIIQ-NH2; linker 7-14 via Phenylene(1,4-NHCOCH2)2; N-terminus assumed; SMILES CC[C@H](C)[C@H](NC(=O)[C@@H]1CSCC(=O)Nc2ccc(cc2)NC(=O)CSC[C@H](NC(=O)[C@H](CC(=O)O)NC(=O)[C@H](Cc2c[nH]c3ccccc23)NC(=O)[C@H](CC(N)=O)NC(=O)[C@H](C)NC(=O)[C@@H]2CCCN2C(=O)[C@@H](N)CC(=O)O)C(=O)N[C@@H](CCC(N)=O)C(=O)N[C@@H](CCC(N)=O)C(=O)N[C@@H](C)C(=O)N[C@@H](C)C(=O)N[C@@H](Cc2c[nH]c3ccccc23)C(=O)N[C@@H](CC(C)C)C(=O)N1)C(=O)N[C@H](C(=O)N[C@@H](CCC(N)=O)C(N)=O)[C@@H](C)CC) | 0 | 0 | 0 | 8 | 7 | 27 | – | – | – | – | – | –
DPAQDTCRAAADTCAFF (DPAQDTCRAAADTCAFF-NH2; linker 7-14 via Phenylene(1,4-NHCOCH2)2; N-terminus assumed; SMILES C[C@@H]1NC(=O)[C@H](C)NC(=O)[C@H](CCCNC(=N)N)NC(=O)[C@@H](NC(=O)[C@@H](NC(=O)[C@H](CC(=O)O)NC(=O)[C@H](CCC(N)=O)NC(=O)[C@H](C)NC(=O)[C@@H]2CCCN2C(=O)[C@@H](N)CC(=O)O)[C@@H](C)O)CSCC(=O)Nc2ccc(cc2)NC(=O)CSC[C@@H](C(=O)N[C@@H](C)C(=O)N[C@@H](Cc2ccccc2)C(=O)N[C@@H](Cc2ccccc2)C(N)=O)NC(=O)[C@H]([C@@H](C)O)NC(=O)[C@H](CC(=O)O)NC(=O)[C@H](C)NC1=O) | 8 | 159 | 267 | 241 | 232 | 373 | – | – | – | – | – | –
PTCLNAFFACE (linker 3-10 via Phenylene(1,4-NHCOCH2)2 (inferred)) | – | – | – | – | – | – | 0 | 0 | 0 | 1 | 109 | 35
WSCLSAYFSC (linker 3-10 via Phenylene(1,4-NHCOCH2)2 (inferred)) | – | – | – | – | – | – | 0 | 0 | 0 | 0 | 19 | 189
YECLEAFFNC (linker 3-10 via Phenylene(1,4-NHCOCH2)2 (inferred)) | – | – | – | – | – | – | 0 | 0 | 0 | 2 | 208 | 193
